Results taken from paper PMC3136511.

Biological target: Nup145N(443–605) (Saccharomyces cerevisiae) (UniProt P49687)
Experiment: SAXS

dimer fraction: 98%
stoichiometry N: 2
Substance: Nup145N(443–605) (from UniProt P49687 443-605) (domain or fragment)
